# Assay: soluble on expression in E. coli; label from the status in PepcDB or PDB records
row,Sequence,soluble on expression in E. coli
1,MRSSKSPFKRKSHSRETSHDENTSFFHKRTISGSSAHHSRNVSQGAVPSSAPPVSGGNYSHKRNVSRASNSSQTSNFLAEQYERDRKAIINCCFSRPDHKTGEPPNNYITHVRIIEDSKFPSSRPPPDSKLENKKKRLLILSAKPNNAKLIQIHKARENSDGSFQIGRTWQLTELVRVEKDLEISEGFILTMSKKYYWETNSAKERTVFIKSLITLYIQTFEGHVPELVNWDLSLFYLDERSYQRAVITNRPGSVSPIKSPTSNFTTNTTQSVGSVPFSAPTERTRRSETESVNPVSTPASVEYHAGMKSLNKAPYSSNS,soluble
2,MTAYLNALGVICALGDSREEVARRLFAGDSSGMVVESGWVPERALPVGAVKGALPAMPPAMRSQHSRNNQLLLAAALQIKDEIGQAIEQYGAGRIGVIIGTSTSGIDEASSSMASWLRDQTFPADYDYRQQELGAPANFLATWLQLSGPAYVISTACTSSARALLSARRALDMGLCDAVLCGGVDSLCKLTLNGFSALEAMSPQLCNPFSLNRNGINIGEAAALFLMTREAGSTHSIALLGAGANCDAHHISAPEPSGRGARDAMLQALSNARLEAAQISYLNLHGTATQLNDAMESLAVQAVFPEGVPCSSTKSLSGHTLGAAGALEIAFCWLSLVPHNTEHALPPQVWDGAADPLLPALHWTVPGARLAAADTRYMMSNSFAFGGNNISLIIGDAP,not soluble
3,MGSDKIHHHHHHMQKHARVIYNPTSGREIIKKNLADVLSILEQAGYVTSAHATTAEPDDAKHAAEEAVRNRFDLVVAAGGDGTINEVINGIAEKEYRPKVGIIPTGTTNDFARALHVPRDVIKATKIIAAGQSVAMDIGKANETYFINIGGGGRLTELTYDVPSRLKTMLGQLAYYLKGIEMLPSLKATKVKVEYDQGVFEGEVMFFLLGLTNSIGGFEKIAPDAKLDDGKFSLIIVKKVNLAEFIRLVTLALRGDHIKEPNVIYVKSEKVIVNSEDKMLINLDGELGGETPMEFRNLRQHIEFFASVDDIPATDLFIKENS,not soluble
4,MGSDKIHHHHHHMTPRPVSSVARLVEDNAQDFLRAVQAKLLTLAPQARGHFPTADDATHISIAEMVSALLEGTGEEGKVDDKTLEFFKEAALDARRFGLTPEMHSALGEAVRSELLSLCEDLPFENVLFAERAIAATTAVSVEAVREADEAHIPASYQAEIVEVEKRSRRFTVVRMQAETQLPYLPGQYLAATADFLPNTWRYLCPSIPTNEWGQVEFHIQSDADDIAGLLATTRLGDKWRLGPGRGDFGQSKISSGNDLLFIAHGTGLAPLRAYMFELMNQAAPPRLHFFVGADYPGELYELTGMWNFAAASPWLSVVPVSTHDKDAWWVQATEASQPPRGLHLHQTGSMAKIVTEAGAWADRDVLIAGPESWARDVRRAMIRRGTPAQQIEILGF,not soluble
5,MEIGPDGKPCRACVSVEDMMKKGREMAEKIKKKESETTPSTSTGAKLHGCPVDKDELGRSTWNLLHTMSVYYPEKPTDEDKDRARSFMSILGKTYPCDFCAKDLRKDLKESPPKVESREAFALWMCQLHNKVNEKTGKPKFECRDVMQRWRDGWKDGSCDY,soluble
6,MKEIIFDDIGSYPLPEGVSREWVQNAFKTRAEDEKLFTVINDAFQQKIDAGVEVPTYPQYQDMNEQFLKVIRDSNCTDSPFEVKLECARIEELEAIETVAKAYKEKFGETLKVRICVTGPTELYLKEFGGTRYTDIYTLFAKSINRFVRNSMKSAKHFKIATVSIDEPSIGLNPELAFDENDVISALTEASKAASKWGADVEIHLHSPLYYNYACETTTINVIGVESAGTPSYLELIDKKMLEDTDSFLRIGIARTDIFSLAGILNEKYCTNIWKDQQYIPEIVSQLETPEVIEKRLKLAYRRFGSLIKYVGPDCGLGSWPNQRIAFILLSNVAQGIKNFRENLLEHHHHHH,soluble
7,MRETSSREDTNNIGKAPEMSGGTIMDTMTSLPHQNDQNVIRHLTNLVKSPASGDDDIKKKEDSIMELGNILAQNKQTEELRNMIEQTRPFLVSLGKAKAAKLVRDLVDLCLKIDDQDGDIKVGLVKECIQWATEQNRTFLRQTLTARLVRLYNDLQRYTQALPLAADLIRELKKVDDKDVLVEVELEESKAYYNLSNIGRARASLTGARTTANAIYVNPRMQAALDLQSGILHAADEKDFKTAFSYFYEAFEGYDSVDEKVSALTALKYMLLCKVMLDLPDEVNSLLSAKLALKYNGSDLDAMKAIAAAAQKRSLKDFQVAFGSFPQELQMDPVVRKHFHSLSERMLEKDLCRIIEPYSFVQIEHVAQQIGIDRSKVEKKLSQMILDQKLSGSLDQGEGMLIVFEIAVPDEAYQTALDTIHAMGEVVDALYSNASKIN,not soluble
8,MNLSLHYNLDNRNAMKPHTLVKRSSSQVTDQAVEVIHERIQQGFYPVGSALPSQRELSAELGISRASLREALTRLAALGLLNIMAGKGAYVTAIESQPVEQWNIQFKISLKDFYQLRYILEGFSALLACEYISENDLVQLNTHFEQLESAIQQHNWQEAAENDFAFHRHIIDLSHNQSIIQSLKKQTEWMKQSQILPFVQPNLAYKTIQEHEQILQALIKRDGLMAEKAMRQHIIGAAQRAGVYFSSHS,not soluble
9,MGIKGLSQVIADNAPSAIKVNEMKAFFGRTVAIDASMCLYQFLIAVRQDGSQLQSEDGETTSHLMGMLNRTVRMFENGVKPVYVFDGKPPDMKGGELEKRSERRAEAEKALTEAKEKGDVKEAEKFERRLVKVTKQQNDEAKRLLGLMGIPVVEAPCEAEAQCAHLVKAGKVFGTVTEDMDALTFGSTVLLRHFLAPVAKKIPIKEFNLSLALEEMKLSVEEFIDLCILLGCDYCGTIRGVGPKKAVELIRQHKNIETILENIDQNKYPPPEDWPYKRARELFLNPEVTKPEEVELTWKEADVEGVIQFLCGEKNFNEERIRNALAKLKTSRKSGTQGRIDSFFGNSTKVTCVTAATKRKAEEAEKAKKGAKKGGPPKKRAK,not soluble
10,MGSDKIHHHHHHMPPVWTLPRLYQHFQGAIDLELWTIPYYLTVLYSIKDPTTVPYRLIQAAVYQEMLHAQLVSNIANAYGYSPTLSAPEYVGTAVPHIDFDLDTPNPTSIFTPYSAELGPLDLTRVNTMCLIEYPEWRTQREPDLADDVTDYGSIGEFYDALRVGMEQLRGHVRGNQKQMDEFGPFYQNSPPLTVTESGDAGFLQALTLVDIIVDQGEGQTQPVETIPTEFQNTADGFQDAWPHFQRFDFIRRMPNWPGVYTGVTDPPAGSPGAEAQARLIADFAGFLDILNGMFSGGGAPPAFGVQMAKLGGDILSCWKLGAVPRYS,not soluble
11,SGRPIEDVRDRQRLADATATVHETRLALHHGRGNIESDFRLSNGRSSTCSYLSYSFLSYWPGKHDINLMAGCALAVSAGNCDQNAAINTRRHAARMEGGGQITNVCDQACAHMYALYQPPGSAEAQDSAVVLDSWSDGPAVLLRDSRWAGTYHRTSTYPIERFDKPGAIDALARTRALQAEIEDPQTEFHAHLRGVESVVRTPPVPRKIYASTP,not soluble
12,AIAEAKTLGIATPRKPVLSVSARKLKDNAADWHNLILKWDSLSDKGFTTASSIANLKVSLLSKEKVELESSSPASMEEEEKTNLDYDKGLEALCEELQAILDGLTKIQMKMEKLSSTTKGICELENYHYREESSRPPLFHTWPTAFFYEVSRRLSEAYKKELLLKHTIGAELAHTADRNLSLTYLSMWLHQPYIESNSKLQLESMLLETGHRAL,soluble
13,MGSDKIHHHHHHMVLRYTALGDSLTTGRGSGLFSPGFVQRFGDMMEADLKTRTAINIFARSGLNTEEILGLLSYPYVQKCIRDADMITITGCGNDLIDSVLAYQTSKDETIFSRVSAHCHENFEKMIAKVAEIKGENPSPYAIRVFNLYNPFPEIDIAGKWITSFNSHLETLASAPHVKIADAYSIFKGKEQEYLSFDGVHPNSKGYQAMAEAVHKLGYKELSVS,not soluble
14,MSVKVIVTDMDGTFLNDAKTYNQPRFMAQYQELKKRGIKFVVASGNQYYQLISFFPELKDEISFVAENGALVYEHGKQLFHGELTRHESRIVIGELLKDKQLNFVACGLQSAYVSENAPEAFVALMAKHYHRLKPVKDYQEIDDVLFKFSLNLPDEQIPLVIDKLHIALDGIMKPVTSGFGFIDLIIPGLHKANGISRLLKRWDLSPQNVVAIGDSGNDAEMLKMARYSFAMGNAAENIKQIARYATDDNNHEGALNVIQAVLDNTSPFNS,not soluble
15,MDTNFKLSNCIGTVYRDGQVAFSKDGYSVISPIGNKLSIFDLRNNTSKTLDIDCNYNIKRLSISPSGYHLLASDERGVVHFVHLLSEFKIYTFRSNKPIGSLQWSPDATRVAICRENDLQIHEFGKSIENKVYNPFSLSRTYKLSSDSLKTIDWSDDANLLVSGGEDRVVRVVGAKDFKNLFIHPLASHKGYIVNCQFMKNSYDMITVCKRGLANVWTCNLRPGELVEGIWKKDEEGSDDIEMLEDGEQKVEKIFFEKTKKYWLSESSGSGKSVDVTAARFHKETNILATAFNNGVIVLHEIPSFALVHNLRVSEMRIQTVAWNLTGDWLAIGCGKGSTAQLVVWEWQSESYVMKQQAHSLRITTAEYSPDGSLMATGAEDGKVKIWNSRSSFCTVTFDEHTSGVTAVKWTQSGRAILSASLDGTVRAHDLKRYRNFRTLVCPEPTQLATLAVDKAGDLVIAGAKEVFNIYIWSFETGHLLDILSGHESAISSIDIHGNHIVSGSWDRTIKMWTIVDSQAETVEVSHEALDVKFSPAGDEIAVLTSDGVITFFEAKEMINLGSIDTKLDTDPARGSRDTITRQSAAKTKTFTRIRFSPDGNLLLAGGESNNFCLYSVPERMILKKWQITANRSLDGVILDFNRRNFTEFGNMQLVDTSDEEDELEPNNKMSIKLPGTKNFDLGERRARPEVNIYEVTYCPTGRRFAICSTEGVSVYSLDTISMFDPFQLDSQTNAEVIKRAVWNNDYSTAIMASLRLNNAQYITECLESTSISQIPLVASSLPLMYAERLLKWMVEGNVMSSTRHVHFYMIWLRAILQHHGMQLKGRADVATLTGIQQIVAHHQQHITKLANQNKFALNWLVKIRQSKKSVKKEEEEEEDVSDESDDEDIEDESAGSDDEDSDDSVEIIE,not soluble
16,SLDFRDKVRNMDLQAGLYRHYKGQNYRVLGVARHSETEEALVIYQALYGEFGLWVRPLEMFTEAVEVDGEWVPRFVLVSPEADPLGLQKAPGGEDRA,soluble
17,MVNKDVTKVCIGKIEELPEQLGKTVYIEDKELAVFKLSDGSIRAIENRCPHKGGVLAEGIVSGQYVFCPMHDWKISLEDGIVQEPDHGCVKTYETLIEGEHVYLVY,not soluble
18,MREVKAFVTQDIPLYHNLVMKHIPGADPELVLLNHYYEELDRIPLFEMTRAEINKLLAELGFYKKDHPEDQVPEEFRFSPAKDSPFEGRQSSTAAPETTEPSDSQHTDL,soluble
19,MKKIKALALFSGGLDSLLSMKLLIDQGIEVTALHFNIGFGGNKDKREYFENATAQIGAKLLVCDIREQFFNDVLFKPKYGYGKYFNPCIDCHANMFRNAFYKMLELNADFVLSGEVLGQRPKSQRKEALNQVRKLVREVGEEARFDPVLDRTQAGGKKPQFLDELLLRPMSAKLLEPTFMEKKGFVDREKLLDVSGRGRSRQLQMIKDYGLKYYEKPGGGCLLTDIQVSNKIKNLKEYREMVFEDSVIVKNGRYFVLPHNARLVVARNEEENHKLDIQHPLMDKIELLNCKGPLSLVDKNASKEDKELAGRIALGYAKTLKNQAYLIQIGDEKRELYPLDKENAREYLFALEHHHHHH,soluble

# From the DeepSol protein solubility set
